Broadly, the Kd is the concentration at which binding is half-saturated. A lower Kd goes with higher affinity.

Km and Kd data for seven molecules are collected here from PMC5740117, “Functional characterization and discovery of modulators of SbMATE, the agronomically important aluminium tolerance transporter from Sorghum bicolor” (Scientific Reports, 2017).

The target in test [1] is T1, SbMATE (Sorghum bicolor, UniProt A7XZS5).
T1 sequence (A7XZS5 1-600): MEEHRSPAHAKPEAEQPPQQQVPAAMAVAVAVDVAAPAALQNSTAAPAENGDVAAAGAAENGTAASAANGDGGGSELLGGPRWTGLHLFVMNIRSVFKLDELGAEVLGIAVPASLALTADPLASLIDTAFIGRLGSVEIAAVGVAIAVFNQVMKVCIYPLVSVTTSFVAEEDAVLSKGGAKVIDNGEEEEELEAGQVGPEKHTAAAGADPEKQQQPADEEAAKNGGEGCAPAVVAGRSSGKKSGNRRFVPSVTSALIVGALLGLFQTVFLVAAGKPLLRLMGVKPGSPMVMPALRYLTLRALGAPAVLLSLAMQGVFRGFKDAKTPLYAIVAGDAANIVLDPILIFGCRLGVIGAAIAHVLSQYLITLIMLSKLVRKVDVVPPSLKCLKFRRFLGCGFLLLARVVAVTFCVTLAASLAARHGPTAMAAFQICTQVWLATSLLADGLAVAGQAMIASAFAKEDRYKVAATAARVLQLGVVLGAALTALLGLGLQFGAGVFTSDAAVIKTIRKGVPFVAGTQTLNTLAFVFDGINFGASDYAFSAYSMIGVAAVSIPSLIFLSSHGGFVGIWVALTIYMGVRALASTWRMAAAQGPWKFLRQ
Description: ethidium uptake into Pichia pastoris cells, flow cytometry of DNA-bound ethidium. Type of test: cell-based. On the set-up: full-length; N-terminal FLAG and C-terminal His10 (or 3C-cleavable C-terminal His8) in Pichia pastoris KM71H. The note with it: pH 8.5, 25 mM Tris-Cl, 137 mM NaCl, 2.7 mM KCl, outward proton gradient, 20 min, room temperature; read-out: half-maximal transport rate.

Test [2] addresses T1, SbMATE. Description: surface plasmon resonance, immobilized detergent-purified protein. It is filed as binding. Also on record: full-length; N-terminal FLAG and C-terminal His10 (or 3C-cleavable C-terminal His8) in Pichia pastoris KM71H, bDDM-purified for SPR; Xenopus oocytes from cRNA for citrate efflux. The note with it: 50 mM HEPES pH 8.0, 150 mM NaCl, 0.03% bDDM. (In general: SPR reads the build-up and loss of mass on a sensor chip optically.)

In test [3] the target is T2, SbMATE (Sorghum bicolor MATE transporter), detergent-purified (Sorghum bicolor, bDDM detergent-solubilised from Pichia pastoris; N-terminal FLAG and C-terminal His10 tags left out; covalently immobilised by EDC-NHS chemistry for SPR).
T2 chain: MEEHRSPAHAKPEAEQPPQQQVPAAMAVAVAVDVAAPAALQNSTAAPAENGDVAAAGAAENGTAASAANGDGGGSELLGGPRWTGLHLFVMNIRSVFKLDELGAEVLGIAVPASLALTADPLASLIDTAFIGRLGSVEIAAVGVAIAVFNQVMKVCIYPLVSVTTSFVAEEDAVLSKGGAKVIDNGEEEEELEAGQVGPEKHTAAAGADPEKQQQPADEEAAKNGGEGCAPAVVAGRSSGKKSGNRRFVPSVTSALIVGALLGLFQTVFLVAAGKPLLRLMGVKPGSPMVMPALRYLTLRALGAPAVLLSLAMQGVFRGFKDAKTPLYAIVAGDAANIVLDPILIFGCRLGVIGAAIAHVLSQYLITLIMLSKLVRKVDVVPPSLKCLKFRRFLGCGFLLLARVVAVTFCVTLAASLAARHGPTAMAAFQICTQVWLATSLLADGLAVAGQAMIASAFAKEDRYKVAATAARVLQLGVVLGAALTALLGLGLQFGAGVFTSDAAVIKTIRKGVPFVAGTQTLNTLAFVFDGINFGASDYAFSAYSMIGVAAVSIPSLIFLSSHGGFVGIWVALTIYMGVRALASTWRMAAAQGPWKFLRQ
Briefly: SPR; as the other SPR (SbMATE covalently immobilised on CMD chip; 50 mM HEPES pH 8.0, 150 mM NaCl, 0.03% bDDM; Nbs injected at various concentrations) but a BSA-immobilised surface was the reference channel instead of a blank surface; n = 3. The note with it: both partners purified.

Test [4] deals with T2, SbMATE (Sorghum bicolor MATE …). Briefly: SPR; BiOptix 404Pi, CMD sensorchip; detergent-purified SbMATE covalently immobilised (EDC-NHS, 5,000 RU); purified Nbs injected at various concentrations; running buffer 50 mM HEPES pH 8.0, 150 mM NaCl, 0.03% bDDM; double-referenced against a blank surface and buffer injections; regeneration 50 mM glycine pH 2.1. To be noted: both partners purified.

Consider ethidium bromide, for which the Km at SbMATE [1] turned out to be 130 ± 17.8 µM. This molecule returned an equilibrium dissociation constant (Kd) at SbMATE [2] of 47.1 ± 15.6 µM.

B1: Nb 86 (VHH)
VHH: HVQLVESGGGSVQAGGSLRLTCAASGFTFSNYYMSWVRQAPGKGLEWVSSIYSVGSNGYYADSVKGRSTISRDNAKNTLYLQMNSLKPEDTAVYYCAAEPGGSWWDAYSYWGQGTQVTVSS
notes: Selected by mRNA/cDNA display from a naive camelid single-domain library (Creative Biolabs); also called nanobody 86; source: E. coli Shuffle T7, purified (Ni-NTA, SEC)
For B1, the Kd in test [3] worked out at 0.174 µM.

B2: Nb 93 (VHH)
VHH: HVQLVESGGGLVQAGGFLRLSCTASGFTFDNLALAWFRQAPGKEREGVSCISWSGTRTYYADSVQGRFAISRDNAKNTLYLQMASLKPEDTAMYYCAAESSWVKTCPGDTTDWGSTYWGQGTQVTVSS
notes: Selected by mRNA/cDNA display from a naive camelid single-domain library (Creative Biolabs); also called nanobody 93; source: E. coli, purified (Ni-NTA, SEC)
In turn, B2 registered a dissociation constant Kd in test [4] of 26.1 µM.

B3: Nb 81 (VHH)
VHH: HVQLVESGGGSVQAGGSLRLSCAASGYSYCSYDMSWYRQAPGKEREFVATIDSYGDTSYADSVKGRFTISQDNAKNTLYLQMNSLKPEDTAMYYCATTPYGGWRYFGYWGQGTQVTVSS
notes: Selected by mRNA/cDNA display from a naive camelid single-domain library (Creative Biolabs); also called nanobody 81; source: E. coli, purified (Ni-NTA, SEC)
Molecule B3 yielded a Kd in test [4] of 23.9 µM.

B4: Nb 94 (VHH)
VHH: EVQLVESGGGLVQPGGSLRLSCAASGFTFSTYSMSWVRLAPGKALEWVSVINSGGDATYYADSVKGRFTISRDNAKNMLYLQMNSLKPVDTAMYYCVTGLYMSTGPVVAVPFGYWGQGTQVTVSS
notes: Selected by mRNA/cDNA display from a naive camelid single-domain library (Creative Biolabs); also called nanobody 94; source: E. coli BL21 (DE3) Star, purified (Ni-NTA, SEC)
The molecule B4 displayed a Kd in test [3] of 0.0995 µM.

B5: Nb 83 (VHH)
VHH: EVQLVESGGGSVQAGGSLRLSCAVSGYTYCSYDMSWYRQAPGKEREFVSGIDSDGSTSYADSVKGRFTISQDNAKNTLYLQMNSLKPEDTAMYYCAVDSVWRLCSLDPADFGYWGQGTQVTVSS
notes: Selected by mRNA/cDNA display from a naive camelid single-domain library (Creative Biolabs); also called nanobody 83; source: E. coli BL21 (DE3) Star, purified (Ni-NTA, SEC)
For B5, binding in test [4] was characterised by a dissociation constant (Kd) of 3.3 µM.

B6: Nb 80 (VHH)
VHH: QVQLVESGGGSVQAGGSLRLSCTYSVYTYSSDSMAWFRQAPGKEREGVAGIYIGSGSTLYADSAKGRLTISQDKAKNTVYLQMNSLKPEDTALYYCAAGGNWYDGVLNVERAFAYWGQGTQVTVSS
notes: Selected by mRNA/cDNA display from a naive camelid single-domain library (Creative Biolabs); also called nanobody 80; source: E. coli, purified (Ni-NTA, SEC)
For B6, in test [4], the Kd worked out at 12.2 µM.
